B1: 3FZN, ketoacid decarboxylase, SEQ ID NO: 20 (Pseudomonas putida) (protein)
chain: MASVHGTTYELLRRQGIDTVFGNPGSNELPFLKDFPEDFRYILALQEACVVGIADGYAQASRKPAFINLHSAAGTGNAMGALSNAWNSHSPLIVTAGQQTRAMIGVEALLTNVDAANLPRPLVKWSYEPASAAEVPHAMSRAIHMASMAPQGPVYLSVPYDDWDKDADPQSHHLFDRHVSSSVRLNDQDLDILVKALNSASNPAIVLGPDVDAANANADCVMLAERLKAPVWVAPSAPRCPFPTRHPCFRGLMPAGIAAISQLLEGHDVVLVIGAPVFRYHQYDPGQYLKPGTRLISVTCDPLEAARAPMGDAIVADIGAMASALANLVEESSRQLPTAAPEPAKVDQDAGRLHPETVFDTLNDMAPENAIYLNESTSTTAQMWQRLNMRNPGSYYFCAAGGLGFALPAAIGVQLAEPERQVIAVIGDGSANYSISALWTAAQYNIPTIFVIMNNGTYGALRWFAGVLEAENVPGLDVPGIDFRALAKGYGVQALKADNLEQLKGSLQEALSAKGPVLIEVSTVSPVKGSTENLYFQSGALE
B2: 1ZPD, ketoacid decarboxylase, SEQ ID NO: 22 (Zymomonas mobilis subsp. mobilis ZM4 = ATCC 31821) (protein)
chain: MSYTVGTYLAERLVQIGLKHHFAVAGDYNLVLLDNLLLNKNMEQVYCCNELNCGFSAEGYARAKGAAAAVVTYSVGALSAFDAIGGAYAENLPVILISGAPNNNDHAAGHVLHHALGKTDYHYQLEMAKNITAAAEAIYTPEEAPAKIDHVIKTALREKKPVYLEIACNIASMPCAAPGPASALFNDEASDEASLNAAVDETLKFIANRDKVAVLVGSKLRAAGAEEAAVKFTDALGGAVATMAAAKSFFPEENALYIGTSWGEVSYPGVEKTMKEADAVIALAPVFNDYSTTGWTDIPDPKKLVLAEPRSVVVNGIRFPSVHLKDYLTRLAQKVSKKTGSLDFFKSLNAGELKKAAPADPSAPLVNAEIARQVEALLTPNTTVIAETGDSWFNAQRMKLPNGARVEYEMQWGHIGWSVPAAFGYAVGAPERRNILMVGDGSFQLTAQEVAQMVRLKLPVIIFLINNYGYTIEVMIHDGPYNNIKNWDYAGLMEVFNGNGGYDSGAAKGLKAKTGGELAEAIKVALANTDGPTLIECFIGREDCTEELVKWGKRVAAANSRKPVNKVVGSTENLYFQSGALE

Columns and labels:
Assay in all cases: Steady-state kinetics of 2-ketoacid decarboxylase (ADH/NADH coupled)
Type in all cases: biochemical
Conditions in all cases: other: pH 7.5, 21° C.
[1] = substrate: CCCC(=O)C(=O)O
Text: (§1) FIG. 17: Depicts protein sequences of various 2-ketoacid decarboxylases (SEQ ID NOS:20-34). Protein Sequence 3FZN is SEQ ID NO: 20. Protein sequence 2VBI is SEQ ID NO: 21. Protein sequence 1ZPD is SEQ ID NO: 22. Protein sequence ZP_08570611 is SEQ ID NO: 23. Protein sequence YP_831380 is SEQ ID NO: 24. Protein sequence ZP_06547677 is SEQ ID NO: 25. Protein sequence 1OVM_P23234 is SEQ ID NO: 26. Protein sequence ZP_06418208 is SEQ ID NO: 27. Protein sequence ZP_07290467 is SEQ ID NO: 28. Protein sequence 2VBG is SEQ ID NO: 29. Protein sequence CAK95977 is SEQ ID NO: 30. Protein sequence ZP_07282849 is SEQ ID NO: 31. Protein sequence ZP_06846103 is SEQ ID NO: 32. Protein sequence ZP_04996569 is SEQ ID NO: 33. Protein sequence YP_381143 is SEQ ID NO: 34.
(§2) To evaluate if the integrative genomic mining approach enriches the mining for C8 activity, an additional set of previously characterized ketoacid decarboxylases diverse in sequence were experimentally characterized in an equivalent manner. […] The median C8 activity from the GEOs selected using the integrative genomic mining approach is 75-fold higher than the naively picked decarboxylases (Table 1, FIG. 4). This indicates the integrative genomic mining approach is effective in identifying functional enzymes that perform the desired reaction on C8.
(§3) For the native KIVD and KIVD_VLV mutant, 2 ml overnight cultures of XL1B cells were transformed with pQE9 containing N-terminal his-tagged KIVD enzymes and grown in Terrific Broth (BP biomedical, Cat#3046-042) with 50 μg/mL of carbenicillin. (Fisher scientific, Cat# BP2648-5) For the GEOs, 2 ml overnight cultures of BLR cells were transformed with pet29b+ plasmid containing N-terminal his-tagged GEOs, and grown in Terrific Broth with 50 μg/mL of kanamycin. (Fisher scientific, Cat# BP906-5) These cultures were diluted 1:1000 in 500 mL of Terrific Broth with 1 mM MgSO4, 1% glucose, and 50ug/mL of corresponding antibiotics, then grown at 37° C. for 24 hours. Cultures were pelleted down at 4700 rpm for 10 mins and resuspended in auto-induction media (LB broth, 1 mM MgSO4, 0.1 mM TPP, 1×NPS, and 1×5052) for induction at 18° C. for 34 hours. At the end of induction, cells were centrifuged (4700 rpm, 4° C., 20 minutes), supernatant was removed, and cells were resuspended in 40 mL lysis buffer (100 mM Hepes pH 7.5, 100 mM NaCl, 10% glycerol, 0.1 mM TPP, 1 mM MgSO4, 10 mM Imidazole, 1 mM TCEP) and 1 mM PMSF) and sonicated for 2 minutes. Lysed cells were centrifuged at 4700 rpm at 4° C. for 60 mins to remove cell debris. Supernatant was loaded on gravity flow column with 700 μl of cobalt slurry (Fisher scientific, CAT# PI-90091) washed with 10 ml of wash buffer (100 mM Hepes pH 7.5, 100 mM NaCl, 10% glycerol, 0.1 mM TPP, 1 mM MgSO4, 10 mM Imidazole, and 1 mM TCEP). Cobalt bead bed was washed with 15 ml of wash buffer 5 times and proteins were eluted with 1000 μl of elution buffer (100 mM Hepes pH 7.5, 100 mM NaCl, 10% glycerol, 0.1 mM TPP, 1 mM MgSO4, 200 mM Imidazole, and 1 mM TCEP). Protein samples were immediately buffer exchanged with spin concentrators (Satorius, CAT# VS0112) into storage buffer (100 mM Hepes pH 7.5, 100 mM NaCl, 10% glycerol, 0.1 mM TPP, 1 mM MgSO4, and 1 mM TCEP) and stored at 4° C. until kinetics characterization. Protein concentrations were determined using a Synergy H1 spectrophotometer (Biotek) by measuring absorbance at 280 nm using their calculated extinction coefficients with ExPASy ProtParam Tool.^33 All other buffers and salts were purchased from Fisher Scientific unless otherwise specified.
(§4) The kcat and KM values of selective KIVD mutants were measured for the substrates: C3, C5, isoC5, and C8. All substrates were dissolved in MilliQ H2O and pH was adjusted to 7.5 as necessary. Activity was measured at 0.005 mM to 10 mM substrates. The assay was performed in a 96-well half-area plate. […]

[2] = substrate: CCCCCCC(=O)C(=O)O
Text: as §1, §2, §3, §4

[3] = substrate: CC(C)C(=O)C(=O)O
Text: as §1, §2, §3, §4

[4] = substrate: CC(=O)C(=O)O
Text: as §1, §2, §3, §4

Row | Protein | Km [1] [mM] | kcat [1] [s⁻¹] | Km [2] [mM] | kcat [2] [s⁻¹] | Km [3] [mM] | kcat [3] [s⁻¹] | kcat/Km [1] [M⁻¹ s⁻¹] | Km [4] [mM] | kcat [4] [s⁻¹] | kcat/Km [4] [M⁻¹ s⁻¹] | kcat/Km [2] [M⁻¹ s⁻¹]
1 | B1 | 2.7 ± 0.2 | 4.7 ± 0.1 | 3.8 ± 0.3 | 1.3 ± 0.1 | 4.9 ± 0.3 | 0.52 ± 0.02 |  |  |  |  | 
2 | B2 | 7.1 ± 0.3 | 0.95 ± 0.02 | 1.2 ± 0.1 | 0.021 ± 0.001 |  |  | 140 ± 5.6 | 5.7 ± 0.3 | 46.7 ± 1.4 | 8200 ± 545 | 19 ± 2
